From paper PMC12654582
Read-outs that look alike come from different tables or passages of the source.

Legend:
[1] = molecular target: phosphorylated PmrA S119T (Acinetobacter baumannii (strain ATCC 19606)); experiment: native gel or EMSA; Native PAGE after reaction of 40 uM PmrA with 20 uM PmrB and ATP (phosphorylated PmrA); 14% Tris-glycine gel, 4 C
[2] = molecular target: phosphorylated PmrA M12I (Acinetobacter baumannii (strain ATCC 19606)); experiment: as above
[3] = molecular target: phosphorylated PmrA D10N (Acinetobacter baumannii (strain ATCC 19606)); experiment: as above
[4] = molecular target: phosphorylated PmrA I13M (Acinetobacter baumannii (strain ATCC 19606)); experiment: as above
[5] = molecular target: phosphorylated WT PmrA (Acinetobacter baumannii (strain ATCC 19606)); experiment: as above
[6] = molecular target: phosphorylated PmrA G54E (Acinetobacter baumannii (strain ATCC 19606)); experiment: as above
[7] = tested on: PmrA I13M (Acinetobacter baumannii ATCC 19606); experiment: fluorescence anisotropy
[8] = tested on: PmrA M12I (Acinetobacter baumannii ATCC 19606); experiment: fluorescence anisotropy
[9] = tested on: PmrA M12I (Acinetobacter baumannii ATCC 19606); experiment: fluorescence anisotropy; remark: listed apart in the source
[10] = tested on: PmrA I13M (Acinetobacter baumannii ATCC 19606); experiment: fluorescence anisotropy; remark: listed apart in the source

phosphorylated PmrA S119T (natural protein)
stoichiometry N [1]: 2

phosphorylated PmrA M12I (natural protein)
stoichiometry N [2]: 2

phosphorylated PmrA D10N (natural protein)
stoichiometry N [3]: 2

phosphorylated PmrA I13M (natural protein)
stoichiometry N [4]: 2

phosphorylated WT PmrA (natural protein)
stoichiometry N [5]: 2

phosphorylated PmrA G54E (natural protein)
stoichiometry N [6]: 2

AbpmrC_30mer FAM
Kd [7]: 17.4 µM
Kd [8]: 21 µM
Kd [9]: 0.0423 µM
Kd [10]: 0.0516 µM
